In patent publication US20080075733A1:

Target: Fc receptor on THP-1 cells
Test: cell-based or functional assay

TNF-α secretion from THP-1 cells on coated wells (10 µg/well, heat aggregated): > 40 ng/well
Substance: human IgG1 (heat aggregated, coated on wells) (antibody)
